Our source for the Kd values is publication PMC8708005.

In the series the target is PCBP2 (poly(C)-binding protein 2, hnRNP E2) (UniProt Q15366). The series is described as follows: EMSA. As to conditions: EMSA: 25 mM NaH2PO4 pH 8.0, 50 mM NaCl, 25 mM KCl, 2.5 mM MgCl2, 10 mM imidazole, 0.5 mM DTT, 0.5 mM PMSF, 7% glycerol, 0.5 U/uL RNasin, 75 ng/uL BSA ….
PCBP2 (poly(C)-binding protein 2, hnRNP E2), sequence (Q15366 whole entry): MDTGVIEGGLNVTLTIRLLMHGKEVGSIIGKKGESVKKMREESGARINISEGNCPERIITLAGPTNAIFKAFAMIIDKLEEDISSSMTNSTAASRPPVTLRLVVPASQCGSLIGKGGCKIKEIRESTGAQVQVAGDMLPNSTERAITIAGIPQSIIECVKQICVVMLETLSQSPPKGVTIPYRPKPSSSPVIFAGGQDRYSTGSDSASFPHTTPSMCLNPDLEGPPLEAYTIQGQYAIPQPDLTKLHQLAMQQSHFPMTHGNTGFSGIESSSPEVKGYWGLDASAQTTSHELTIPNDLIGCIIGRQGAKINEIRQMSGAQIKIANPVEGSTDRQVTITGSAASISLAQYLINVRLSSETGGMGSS

In the case of “GGUCAUGGCGACUGUCCAGCUUUGUGCCAGGAGCCUCGCAGGGGUUGAUGGGAUUGGGGUUUUCCCCUCCCAUGUGCUCAAGACUGGCGCUAAAAGUUUUGAGCUUCUCAAAAGUCUAGAGCCACCGUCCAGGGAGCAGGUAGCUGCUGGGCUCCGGGGACACUUUGCGUUCGGGCUGGGAGCGUGCUUUCCACGACGGUGACACGCUUCCCUGGAUUGGCAGCCAGACUGCCUUCCGGGUCACUGCCAUGGAGGAGCCGCAGUCAGAUCCUAGCGUCGAGCCCCCUCUGAGUCAGGAAACAUUUUCAGACCUAUGGAAACUACUUCCUGAAAACAACGUUCUGUCCCCCUUGCCGUCCCAAGCAAUG [P0-Δ40p53 RNA]”, the dissociation constant Kd was 63 nM. This counts as double-digit nanomolar.
